Experimental data as given in publication PMC5261807 (2017).
Non-standard residues stand in square brackets, D forms with d. Primed or numbered codes have the meaning given here. No end group written: not given here. Me2a″ = asymmetric dimethylarginine (Rme2a); Me2s″ = symmetric dimethylarginine (Rme2s); Arg(Me2a) = CN(C)C(=N)NCCC[C@H](N)C(=O)O; Lys(Me3) = C[N+](C)(C)CCCC[C@H](N)C(=O)O; Arg(Me2s) = CN=C(NC)NCCC[C@H](N)C(=O)O; pT = C[C@@H](OP(=O)(O)O)[C@H](N)C(=O)O; Me2a = asymmetric dimethyl (on Arg); Lys(Me2) = CN(C)CCCC[C@H](N)C(=O)O; Me2s = symmetric dimethyl (on Arg); pS = N[C@@H](COP(=O)(O)O)C(=O)O; Lys(Me) = CNCCCC[C@H](N)C(=O)O; Me3″ = trimethyl lysine (Kme3); Me3 = trimethyl (on Lys); Me2 = dimethyl (on Lys)

T1: Bdf1 bromodomain 2 (GST-tagged, WT) (Saccharomyces cerevisiae (strain ATCC …, UniProt P35817))
T1 chain: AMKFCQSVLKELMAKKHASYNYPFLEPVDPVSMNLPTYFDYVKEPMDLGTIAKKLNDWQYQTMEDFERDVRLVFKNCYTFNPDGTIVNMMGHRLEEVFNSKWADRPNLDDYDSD

T2: Bdf1 bromodomain 1 (GST-tagged, WT) (Saccharomyces cerevisiae (strain ATCC …, UniProt P35817))
T2 chain: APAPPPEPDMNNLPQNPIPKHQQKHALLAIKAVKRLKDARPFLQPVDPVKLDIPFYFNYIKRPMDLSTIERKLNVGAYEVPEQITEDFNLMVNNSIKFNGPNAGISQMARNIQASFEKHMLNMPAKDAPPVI


Key:
[1] = molecular target: T1, Bdf1 bromodomain 2 (GST-tagged, WT); assay: histone peptide array probed with recombinant GST-bromodomain, signal normalised to myc peptide control
[2] = molecular target: T2, Bdf1 bromodomain 1 (GST-tagged, WT); assay: as above

| Binder | binding score [1] | binding score [2] |
| --- | --- | --- |
| ARTKQTARKSTGGKAPRKQ (A Rme2s T Kac Q T A Rme2a Kac S T G G K A P R K Q) | 0.0894 | 0.0545 |
| ARTKQTARKSTGGKAPRKQ (A R T Kme1 Q T A Rme2a Kac S T G G K A P R K Q) | 0.00915 | 0.0217 |
| ARTKQTARKSTGGKAPRKQ (A Rme2s T Kme2 Q T A Rme2a Kme3 S T G G K A P R K Q) | 0.00797 | 0 |
| ARTKQTARKSTGGKAPRKQ (A R T K Q T A R Kac S pT G G K A P R K Q) | 0 | 0 |
| A[Arg(Me2s)]T[Lys(Me2)]QTA[Arg(Me2s)][Lys(Me3)]STGGKAPRKQ | 0 | 0 |
| ARTKQTARKSTGGK(Ac)APRKQ | 0.0733 | 0.00108 |
| PRKQLATKAAR(Me2a″)K(Ac)[pS]APATGG | 0 | 0.00143 |
| SGRGKQGGK(Ac)ARAKAKSRSS | 0.00797 | 0.00717 |
| PRKQLATKAAR[Lys(Me3)]SAPATGG | 0 | 0 |
| A[Arg(Me2a)]T[Lys(Me2)]QTARK(Ac)STGGKAPRKQ | 0.00108 | 0 |
| SGRGKGGKGLGKGGAKRHR (S G R G K G G K G L G K G G A Kac R H R) | 0 | 0 |
| [pS]GRGKQGGKARAKAKSRSS | 0.00502 | 0 |
| SGRGKQGGKARAKAKSRSS (histone peptides carry modifications given inline in the sequence and in columns 4-7 (Kac, Kme1/2/3, Rme2a/s, Cit, pS/pT); N-terminus free or acetylated) | 0.0141 | 0 |
| ARTKQTARKSTGGKAPRKQ (A Rme2s T Kme3 Q T A Rme2a Kac S T G G K A P R K Q) | 0.00305 | 0.0136 |
| A[Arg(Me2a)]T[Lys(Me2)]QTA[Arg(Me2a)][Lys(Me3)]STGGKAPRKQ | 0 | 0 |
| PRKQLATKAA[Arg(Me2s)][Lys(Me2)]SAPATGG | 0 | 0 |
| ARTKQTA[Arg(Me2s)][Lys(Me)][pS]TGGKAPRKQ | 0 | 0.00394 |
| ARTKQTARKSTGGKAPRKQ (A Rme2s T Kme3 Q T A Rme2s Kme1 S T G G K A P R K Q) | 0.00187 | 0.00161 |
| ARTKQTARKSTGGKAPRKQ (A Rme2a T Kac Q T A Rme2a Kme2 S T G G K A P R K Q) | 0.0105 | 0.00143 |
| ARTKQTARKSTGGKAPRKQ (A R T K Q T A R Kme3 S pT G G K A P R K Q) | 0 | 0 |
| SGRGKGGKGLGKGGAKRHR (S G Rme2s G K G G Kac G L G K G G A K R H R) | 0.0294 | 0 |
| A[Arg(Me2s)]T[Lys(Me2)]QTAR[Lys(Me3)]STGGKAPRKQ | 0 | 0 |
| A[Arg(Me2s)]TK(Me)QTARKSTGGKAPRKQ | 0 | 0 |
| ARTKQTARKSTGGKAPRKQ (A R T K Q T A R Kme1 pS T G G K A P R K Q) | 0 | 0 |
| ARTKQTARKSTGGKAPRKQ (A R T Kme2 Q T A Rme2s Kme2 S T G G K A P R K Q) | 0.00325 | 0 |

Now from value to binder:

| binding score [1] | binding score [2] | Binder |
| --- | --- | --- |
| 0.00364 | 0 | RKSAPATGGVKKPHRYRPG (R K S A P A T G G V Kme1 K P H R Y R P G) [H3 26-45] |
| 0.00758 | 0.00681 | A[Arg(Me2a)]TK(Ac)QTA[Arg(Me2s)][Lys(Me3)]STGGKAPRKQ |
| 0 | 0.000538 | ART[Lys(Me3)]QTA[Arg(Me2a)][Lys(Me2)]STGGKAPRKQ |
| 0.161 | 0.0534 | SGRGKGGKGLGKGGAKRHR (S G R G K G G Kac G L G K G G A Kac R H R) |
| 0.00895 | 0 | ARTKQTARKSTGGKAPRKQ (A Rme2s T Kme2 Q T A R Kme1 S T G G K A P R K Q) |
| 0.006 | 0.00538 | RRKKKRRKKKRKRKKRK (R Rme2s K Kme1 Kac R Rme2a Kme2 K Kme3 R Kme1 Rme2s K Kac R K) [background 02] |
| 0 | 0 | ARTKQTA[Arg(Me2a)][Lys(Me)]S[pT]GGKAPRKQ |
| 0.00915 | 0.00179 | ARTK(Ac)QTAR(Me2a)K(Me2)STGGKAPRKQ |
| 0.00915 | 0.0228 | ARTKQTARKSTGGKAPRKQ (A R T Kme2 Q T A Rme2a Kac S T G G K A P R K Q) |
| 0.00482 | 0.0172 | A[Arg(Me2s)]TK(Ac)QTARKSTGGKAPRKQ |
| 0.00305 | 0 | SGRGKGGKGLGKGGAKRHR (pS G R G K G G K G L G K G G A K R H R) |
| 0.000885 | 0 | ARTKQTARKSTGGKAPRKQ (A R T Kme2 Q T A Rme2a Kme2 S T G G K A P R K Q) |
| 0.168 | 0 | PDPAK(Ac)SAPAPKKG[pS]K(Ac)KAVT [H2B 1-19] |
| 0.00915 | 0.0672 | ARTK(Ac)QTAR(Me2s″)K(Ac)STGGKAPRKQ |
| 0 | 0 | PRKQLATKAAR(Me2a″)K(Me3″)[pS]APATGG |
| 0.0133 | 0.00251 | ARTKQTARKSTGGKAPRKQ (A R T Kac Q T A Rme2s Kme2 S T G G K A P R K Q) |
| 0 | 0 | ARTKQTARKSTGGKAPRKQ (A Rme2a T Kme3 Q T A Rme2s Kme3 S T G G K A P R K Q) |
| 0 | 0.0113 | AR(Me2a)TK(Me)QTAR(Me2s)K(Me3)STGGKAPRKQ |
| 0.299 | 0.126 | SGRGKGGKGLGKGGAKRHR (pS G Rme2s G Kac G G Kac G L G K G G A K R H R) |
| 0.00384 | 0.00161 | A[Arg(Me2s)]TK(Ac)QTA[Arg(Me2a)][Lys(Me)]STGGKAPRKQ |
| 0 | 0.00663 | ARTKQTA[Arg(Me2a)]K(Ac)[pS][pT]GGKAPRKQ |
| 1 | 1 | EQKLISEEDLA (histone peptides carry modifications given inline in the sequence and in columns 4-7 (Kac, Kme1/2/3, Rme2a/s, Cit, pS/pT); N-terminus free or acetylated) [c-myc tag] |
| 0.0821 | 0.0576 | ARTKQTARKSTGGKAPRKQ (A R T Kac Q T A Rme2a Kac S T G G K A P R K Q) |
| 0.00443 | 0 | A[Arg(Me2a)]T[Lys(Me3)]QTAR[Lys(Me2)]STGGKAPRKQ |
| 0 | 0.00126 | A[Arg(Me2s)]T[Lys(Me)]QTA[Arg(Me2a)][Lys(Me)]STGGKAPRKQ |
